Data from PMC12159676, “An uncharacterized gene from the Actinobacillus genus encodes a glucosyltransferase with successive transfer activity and unique substrate specificity” (The Journal of Biological Chemistry, 2025).

B1: Actinobacillus minor glucoside-glucosyltransferase (AmGGT), wild type (enzyme, Actinobacillus minor NM305, UniProt C5RYK2 1-341, looked up)
chain: MSNITFYFPFGHVPTYGGDFVNLEHIRALNKHGFSAKVILMKNQIPIVIESFPKDIPVVFYKPGMELNAQDVFVLSEGVRIMYSGLAQTQAFRVIVHNQNPFYTHTGMDSAHDINRYRITKIITPSHYTVKKLEEMGITKPMAVISPYIPEYFKPAEKSNEEIRITYSRRKREEESKILLFYLRSLYRGKKALHIRNLTNYKREEVAEEMSKAHIYASFAERESLGLMALEAMASGCHVVGFSGFTDFENQDVFNEENGDWVKEGEYKKFAEKLIEAIEQIENNTPSPKIENGLALVNSRFRQDRFEQEVVRVYQDILDNLPPLEGFNESDKVVLDFWHFD
notes: AmGGT, product of the ORF AM305_00150 of Actinobacillus minor strain NM305; ORF retrieved from NCBI, chemically synthesized, cloned into pET47b; The whole ORF was cloned; residues left over from the 3C protease site after cleavage are not described; also called AM305_00150 protein; WT AmGGT; source: E. coli BL21(DE3), purified (Ni-Sepharose, 3C protease cleavage, gel filtration; also HiTrapQ ion …)
B2: AmGGT E135A mutant (enzyme)
chain: MSNITFYFPFGHVPTYGGDFVNLEHIRALNKHGFSAKVILMKNQIPIVIESFPKDIPVVFYKPGMELNAQDVFVLSEGVRIMYSGLAQTQAFRVIVHNQNPFYTHTGMDSAHDINRYRITKIITPSHYTVKKLEAMGITKPMAVISPYIPEYFKPAEKSNEEIRITYSRRKREEESKILLFYLRSLYRGKKALHIRNLTNYKREEVAEEMSKAHIYASFAERESLGLMALEAMASGCHVVGFSGFTDFENQDVFNEENGDWVKEGEYKKFAEKLIEAIEQIENNTPSPKIENGLALVNSRFRQDRFEQEVVRVYQDILDNLPPLEGFNESDKVVLDFWHFD
notes: AmGGT, product of the ORF AM305_00150 of Actinobacillus minor strain NM305, with E135A; Production of the mutants is not described separately; source: E. coli BL21(DE3), purified (as told for the AmGGT protein); not shown: His6, N-terminal, cleaved
B3: AmGGT S185A mutant (enzyme)
chain: MSNITFYFPFGHVPTYGGDFVNLEHIRALNKHGFSAKVILMKNQIPIVIESFPKDIPVVFYKPGMELNAQDVFVLSEGVRIMYSGLAQTQAFRVIVHNQNPFYTHTGMDSAHDINRYRITKIITPSHYTVKKLEEMGITKPMAVISPYIPEYFKPAEKSNEEIRITYSRRKREEESKILLFYLRALYRGKKALHIRNLTNYKREEVAEEMSKAHIYASFAERESLGLMALEAMASGCHVVGFSGFTDFENQDVFNEENGDWVKEGEYKKFAEKLIEAIEQIENNTPSPKIENGLALVNSRFRQDRFEQEVVRVYQDILDNLPPLEGFNESDKVVLDFWHFD
notes: AmGGT, product of the ORF AM305_00150 of Actinobacillus minor strain NM305, with S185A; Production of the mutants is not described separately; source: E. coli BL21(DE3), purified (as told for the AmGGT protein); not shown: His6, N-terminal, cleaved

Target: the molecule itself
Assay: SEC; gel-filtration chromatography of purified AmGGT and its mutants, with protein size markers; self-association, dimer against monomer

Row | Protein | stoichiometry N | binding result
1 | B1 | 2 | 
2 | B2 |  | binds
3 | B3 |  | binds
